Earlier results on one substance are cited in publication PMC12583094, “A novel antioxidant peptide from black soybean [Glycine max (L.) Merr.] with verified MPO interaction and multi-scale antioxidant activity” (Frontiers in Nutrition, 2025).

This data set deals with MPO (Homo sapiens) (UniProt P05164). As to the kind of experiment: SPR.
Sequence of MPO (Homo sapiens) (P05164 165-273, chain 1 of 2): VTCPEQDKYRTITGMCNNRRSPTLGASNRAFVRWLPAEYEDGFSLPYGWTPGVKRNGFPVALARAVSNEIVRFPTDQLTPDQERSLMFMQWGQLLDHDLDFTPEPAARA
Sequence of MPO (Homo sapiens) (P05164 279-745, chain 2 of 2): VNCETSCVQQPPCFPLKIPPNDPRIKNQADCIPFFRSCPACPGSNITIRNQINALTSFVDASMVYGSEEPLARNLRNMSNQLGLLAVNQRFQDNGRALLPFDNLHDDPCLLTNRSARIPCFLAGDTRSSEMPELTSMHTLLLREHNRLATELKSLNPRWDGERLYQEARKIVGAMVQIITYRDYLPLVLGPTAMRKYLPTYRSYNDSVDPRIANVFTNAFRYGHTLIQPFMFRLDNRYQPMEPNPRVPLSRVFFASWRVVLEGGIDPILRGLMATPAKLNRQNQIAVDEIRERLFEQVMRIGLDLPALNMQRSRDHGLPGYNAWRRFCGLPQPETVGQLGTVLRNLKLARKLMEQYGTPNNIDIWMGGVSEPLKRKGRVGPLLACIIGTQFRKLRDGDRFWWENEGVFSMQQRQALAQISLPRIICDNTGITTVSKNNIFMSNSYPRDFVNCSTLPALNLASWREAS

Take SPIN (from UniProt A0A0H3K703): the Kd was 10 nM.
